# From patent publication US20140105889A1 (published 2014)
# Numbering of substitutions follows the chain as printed. Numbers in names are those of the source.
# B1: IgG1-F1311 (antibody, name in EU numbering)
# heavy: QVQLQESGPGLVKPSETLSLTCAVSGHSISHDHAWSWVRQPPGEGLEWIGFISYSGITNYNPSLQGRVTISRDNSKNTLYLQMNSLRAEDTAVYYCARSLARTTAMDYWGEGTLVTVSSASTKGPSVFPLAPSSKSTSGGTAALGCLVKDYFPEPVTVSWNSGALTSGVHTFPAVLQSSGLYSLSSVVTVPSSSLGTQTYICNVNHKPSNTKVDKKVEPKSCDKTHTCPPCPAPELRGGPKVFLFPPKPKDTLYISRTPEVTCVVVDVSHEDPEVKFNWYVDGVEVHNAKTKPREEQYNSTYRVVSVLTVLHQDWLNGKEYKCKVSNKALPAPIEKTISKAKGQPREPQVYTLPPSRDELTKNQVSLTCLVKGFYPSDIAVEWESNGQPENNYKTTPPVLDSDGSFFLYSKLTVDKSRWQQGNAFACSVMHEALDYHVTQKSLSLSP
# light: not shown
# notes: light chain L(WT)-CK; copies: 2 + 2
# B2: VH3/L(WT)-IgG1-F699 (antibody, name in EU numbering)
# heavy: B1 heavy with R237L, N288E, T309Q, Q313A, A424V, A426S, D435H, V438Y
# light: not shown
# notes: The positions are EU numbering, not positions on the entry; copies: 2 + 2
# B3: IgG1-F791 (antibody)
# heavy: B1 heavy with R237L, K241S, N317F, A424V, A426S, D435H, V438Y
# light: not shown
# notes: Substitutions by EU numbering; copies: 2 + 2
# B4: IgG1-F1014 (antibody, name in EU numbering)
# heavy: B1 heavy with T252V, T309Q, V310P, Q313A, A424V, A426S, D435H, V438Y
# light: not shown
# B5: F1189 (antibody, name in EU numbering)
# heavy: B1 heavy with R237L, K241S, A424V, A426S, Q440R, S442E
# light: not shown
# notes: copies: 2 + 2
# B6: IgG1-F1339 (antibody, name in EU numbering)
# heavy: B1 heavy with S256T, T258E, A424V, A426S, V438T, Q440K, S442E
# light: not shown
# notes: as for B1
# B7: IgG1-F197 (antibody, name in EU numbering)
# heavy: B1 heavy with R237L, K241S, Y254M, P259T, T309Q, A424V, A426S, M430L, D435H, V438Y
# light: not shown
# notes: VH3-IgG1 Fc variant; EU numbering
# B8: IgG1-F185 (antibody, name in EU numbering)
# heavy: B1 heavy with R237L, K241S, Y254W, I334V, A424V, A426S, D435H, V438Y
# light: not shown
# notes: as for B7
# B9: IgG1-F1017 (antibody)
# heavy: B1 heavy with T252V, N288E, T309Q, V310P, Q313A, A424V, A426S, D435H
# light: not shown
# B10: IgG1-F1019 (antibody, name in EU numbering)
# heavy: B1 heavy with R237L, P240D, K241S, T252V, N327G, A424V, A426S, D435H, V438Y
# light: not shown
# B11: antibody with VH3-IgG1-F1326 heavy chain and L(WT)-CK light chain (antibody)
# heavy: B1 heavy with L236A, R237A, K241S, T252V, T309Q, V310P, Q313A, A424V, A426S, D435H
# light: not shown
# notes: copies: 2 + 2
# B12: F1192 (antibody, name in EU numbering)
# heavy: B1 heavy with R237L, K241S, A424V, A426S, D435H, T439G, Q440R, S442E
# light: not shown
# notes: copies: 2 + 2
# B13: IgG1 (IL6R-G1d / IL6R-L) (antibody)
# heavy: not shown
# light: DIQMTQSPSSLSASVGDRVTITCRASQDISSYLNWYQQKPGKAPKLLIYYTSRLHSGVPSRFSGSGSGTDFTFTISSLQPEDIATYYCQQGNTLPYTFGQGTKVEIK
# notes: Anti-human IL-6 receptor antibody; G1d constant region (IgG1 without C-terminal Gly and Lys); L chain of tocilizumab
# B14: IgG1-v2 (IL6R-G1d_v2 / IL6R-L) (antibody)
# heavy: not shown
# light: B13 light
# notes: IL6R-G1d with L328E (EU numbering)
# B15: IgG1-v1 (IL6R-G1d_v1 / IL6R-L) (antibody)
# heavy: not shown
# light: B13 light
# notes: IL6R-G1d with P238D (EU numbering)
# B16: IgG1-v3 (IL6R-G1d_v3 / IL6R-L) (antibody)
# heavy: not shown
# light: B13 light
# notes: IL6R-G1d with S267E/L328F (EU numbering)
# Legend:
# human FcRn [1] = biological target: T1, human FcRn (human); assay: SPR (Biacore), antibody captured by Protein L, human FcRn as analyte, pH 7.0
# T1 construct: Soluble human FcRn complexed with β2-microglobulin; also called hFcRn; soluble human FcRn complexed with β2-microglobulin
# human FcγRIIIa(F) [2] = biological target: T2, human FcγRIIIa(F) (human, UniProt P08637 17-208, limits assumed); assay: SPR (Biacore), antibody captured on Protein L, human FcγR as analyte, pH 7.4, 25 C
# T2 construct: also called hFcgRIIIa(F); hFcgRIIIa
# human FcRn [3] = biological target: T3, human FcRn (human); assay: SPR (Biacore), pH 7.0, 25 C; antibody captured on Protein L, human FcRn injected
# T3 construct: Soluble human FcRn complexed with beta2-microglobulin; also called hFcRn; soluble human FcRn complexed with β2-microglobulin
# [4] = biological target: T4, human FcRn (soluble human FcRn complexed with beta2-microglobulin) (human, UniProt P61769 21-119); assay: SPR (Biacore), pH 7.0, 25 C, antibody captured by Protein L, human FcRn as analyte
# T4 construct: also called hFcRn
# human FcRn [5] = biological target: T5, human FcRn (human); assay: as above
# T5 construct: also called hFcRn; soluble human FcRn complexed with β2-microglobulin
# human FcRn [6] = biological target: T1, human FcRn; assay: SPR (Biacore), antibody captured by Protein L, human FcRn as analyte, pH 7.0; remark: listed apart in the source
# [7] = biological target: T6, human FcRn (soluble human FcRn complexed with β2-microglobulin) (human, UniProt P61769 21-119); assay: Biacore SPR, pH 7.0, 25 C; antibody captured by Protein L, human FcRn as analyte
# T6 construct: also called hFcRn
# mouse FcγRIV = biological target: T7, mouse FcγRIV (mouse); assay: SPR (Biacore), antibody captured on Protein L, mouse FcγR as analyte, pH 7.4, 25 C (method of Example 4, RU)
# T7 construct: Bought soluble receptor; also called mFcgRIV; mFcgR IV
# human FcγRIIIa(F) [8] = biological target: T8, human FcγRIIIa(F) (human, UniProt P08637 17-208, limits assumed); assay: SPR (Biacore T100), antibody captured by Protein A, FcγR as analyte, HBS-EP+, 25°C, 1:1 Langmuir global fit
# T8 construct: also called FcgRIIIaF; hFcgRIIIa(F)
# human FcγRIIIa(F) [9] = biological target: T8, human FcγRIIIa(F); assay: SPR (Biacore T100), ratio of the KD values of Table 24, reference IgG1 (IL6R-G1d/IL6R-L)
# human FcγRIIIa(F) [10] = biological target: T8, human FcγRIIIa(F); assay: SPR (Biacore T100), antibody captured by Protein A, FcγR as analyte, 25°C; weak binding, KD calculated by Equation 5 (1:1 binding model)
# T4 sequence (chain, as listed by the source limits assumed, chain 1 of 2): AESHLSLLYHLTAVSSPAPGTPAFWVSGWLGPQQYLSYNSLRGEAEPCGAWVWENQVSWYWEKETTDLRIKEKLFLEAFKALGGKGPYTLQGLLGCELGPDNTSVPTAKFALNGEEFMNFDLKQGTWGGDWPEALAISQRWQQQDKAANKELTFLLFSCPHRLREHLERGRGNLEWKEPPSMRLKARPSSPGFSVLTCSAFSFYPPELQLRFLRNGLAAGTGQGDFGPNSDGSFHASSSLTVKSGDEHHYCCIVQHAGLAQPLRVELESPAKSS
# T4 sequence (P61769 21-119 limits assumed, chain 2 of 2): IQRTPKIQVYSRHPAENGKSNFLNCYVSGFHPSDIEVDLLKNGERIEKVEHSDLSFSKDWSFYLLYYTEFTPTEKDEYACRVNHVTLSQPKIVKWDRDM
# T6 sequence (chain, as listed by the source limits assumed, chain 1 of 2): as the sequence (chain, as listed by the source limits assumed, chain 1 of 2) above
# T6 sequence (P61769 21-119 limits assumed, chain 2 of 2): as the sequence (P61769 21-119 limits assumed, chain 2 of 2) above
# T7 sequence (A0A0B4J1G0 21-203): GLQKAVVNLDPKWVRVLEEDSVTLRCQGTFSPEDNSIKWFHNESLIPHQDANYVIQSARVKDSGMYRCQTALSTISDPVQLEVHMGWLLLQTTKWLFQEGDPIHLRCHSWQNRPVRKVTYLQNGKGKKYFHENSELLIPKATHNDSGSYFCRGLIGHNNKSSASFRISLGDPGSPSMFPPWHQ
binder,measurement,setting,value
B1,Kd,human FcRn [1],169 nM
B2,BINDING AMOUNT (RU),human FcγRIIIa(F) [2],-2 RU
B3,Kd,human FcRn [3],440 nM
B4,Kd,[4],32 nM
B5,Kd,human FcRn [5],157 nM
B6,Kd,human FcRn [6],251 nM
B7,Kd,[7],33 nM
B8,Kd,[7],260 nM
B9,Kd,[4],4.2 nM
B10,Kd,[4],340 nM
B11,BINDING AMOUNT,mouse FcγRIV,85.6
B12,Kd,human FcRn [5],127 nM
B13,Kd,human FcγRIIIa(F) [8],3100 nM
B14,relative KD (KD of IgG1 / KD of the variant),human FcγRIIIa(F) [9],0.14 fold
same,Kd,human FcγRIIIa(F) [10],23000 nM
B15,relative KD (KD of IgG1 / KD of the variant),human FcγRIIIa(F) [9],0.061 fold
same,Kd,human FcγRIIIa(F) [10],51000 nM
B16,relative KD (KD of IgG1 / KD of the variant),human FcγRIIIa(F) [9],0.35 fold
same,Kd,human FcγRIIIa(F) [8],8800 nM
